The record followed here is patent US20180237536A1 (INNATE PHARMA, published 2018).

Where a chain is given by its changes, count along the chain named.

Test [1] has as its target T1, human CD73 expressed at the cell surface (human, UniProt P21589 27-549).
T1 sequence: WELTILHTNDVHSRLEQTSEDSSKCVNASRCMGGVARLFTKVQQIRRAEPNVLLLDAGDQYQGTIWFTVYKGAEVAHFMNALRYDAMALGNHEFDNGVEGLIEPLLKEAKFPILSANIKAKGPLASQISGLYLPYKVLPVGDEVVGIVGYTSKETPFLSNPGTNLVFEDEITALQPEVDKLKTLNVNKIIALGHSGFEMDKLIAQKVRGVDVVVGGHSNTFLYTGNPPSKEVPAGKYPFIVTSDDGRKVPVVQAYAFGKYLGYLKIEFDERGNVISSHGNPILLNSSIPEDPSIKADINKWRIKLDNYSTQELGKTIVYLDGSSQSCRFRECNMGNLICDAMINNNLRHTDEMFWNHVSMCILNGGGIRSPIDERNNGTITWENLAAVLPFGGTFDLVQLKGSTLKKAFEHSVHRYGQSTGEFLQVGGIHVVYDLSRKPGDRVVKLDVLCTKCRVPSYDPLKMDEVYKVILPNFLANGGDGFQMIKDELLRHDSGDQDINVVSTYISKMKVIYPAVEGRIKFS
Put plainly: cell-based or functional assay.

Test [2] concerns the target T1, human CD73 expressed at the cell surface. In words: flow cytometry titration on human CD73-expressing recombinant host cells, PE secondary, median of fluorescence. As to the method:
MDA-MB-231 cells are available from ATCC (reference HTB-26). 10⁵ cells resuspended in PBS/0.2% BSA/0.02% NaN3 (named “staining buffer”) are distributed into round bottom 96W-microplates. Dose-range of anti-CD73 antibodies was added to the plates and cells are incubated for 45 min at 4° C. Cells were washed three times in staining buffer by spinning plates at 400 g for 3 min at 4° C. PE-coupled goat anti-mouse or goat anti-human IgG Fc fragment secondary antibodies (Beckman Coulter) diluted in staining buffer were added to the cells and plates are incubated for 30 additional minutes at 4° C. Cells were washed three times as described above and analyzed on an Accury C6 flow cytometer equipped with an HTFC plate reader.
Median of fluorescence vs. antibodies concentration was plotted on graphs and EC50 is calculated using GraphPad Prism program.

For test [3] the target is unchanged. In words: cell-based or functional assay. This is another data set of the same source.
In test [4] the target is T2, recombinant human CD73-His extracellular domain protein (soluble dimer) (human, UniProt P21589 27-547).
T2 sequence: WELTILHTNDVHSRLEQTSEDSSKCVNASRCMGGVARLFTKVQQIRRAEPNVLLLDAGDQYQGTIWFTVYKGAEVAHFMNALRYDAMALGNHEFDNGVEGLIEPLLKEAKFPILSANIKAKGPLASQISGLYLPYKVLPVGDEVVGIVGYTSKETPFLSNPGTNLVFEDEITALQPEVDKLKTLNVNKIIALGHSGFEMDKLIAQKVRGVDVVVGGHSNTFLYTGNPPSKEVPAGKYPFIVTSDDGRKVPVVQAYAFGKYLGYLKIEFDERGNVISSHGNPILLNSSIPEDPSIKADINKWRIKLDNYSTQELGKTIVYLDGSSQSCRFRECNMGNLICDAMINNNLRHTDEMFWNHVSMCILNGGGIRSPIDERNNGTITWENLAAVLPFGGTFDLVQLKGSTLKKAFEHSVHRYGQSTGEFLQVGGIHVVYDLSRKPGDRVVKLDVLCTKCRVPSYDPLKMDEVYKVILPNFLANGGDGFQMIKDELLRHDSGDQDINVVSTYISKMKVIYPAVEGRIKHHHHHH
In words: cell-based or functional assay.

The target of test [5] is T3, cynomolgus CD73 expressed on recombinant host cells (cynomolgus).
T3 construct: whole, on cells; also called cynoCD73
Put plainly: flow cytometry titration on cynomolgus CD73-expressing recombinant host cells, PE secondary, median of fluorescence.

For a further test, the target named is T4, human CD73 mutant 3 (human, UniProt P21589 27-549).
T4 construct: Expressed on transfected HEK293T cells
T4 chain: T1 sequence with A73S, E103A, K107A, E108N, A109S
Put plainly: flow cytometry on transfected HEK293T cells. As to the method:
CD73 mutants are generated by PCR. The sequences amplified are run on agarose gel and purified using the Macherey Nagel PCR Clean-Up Gel Extraction kit (reference 740609). The purified PCR products generated for each mutant are then ligated into an expression vector, with the ClonTech InFusion system. The vectors containing the mutated sequences are prepared as Miniprep and sequenced. After sequencing, the vectors containing the mutated sequences are prepared as Midiprep using the Promega PureYield™ Plasmid Midiprep System. HEK293T cells are grown in DMEM medium (Invitrogen), transfected with vectors using Invitrogen's Lipofectamine 2000 and incubated at 37° C. in a CO2 incubator for 24 hours prior to testing for transgene expression
Anti-CD73 antibodies are tested for their binding to each mutant by flow cytometry. A first experiment is performed to determine antibodies that lose their binding to one or several mutants at one concentration. To confirm a loss of binding, titration of antibodies is done on antibodies for which binding seemed to be affected by the CD73 mutations (1-0.1-0.01-0.001 μg/ml). Antibodies 11E1, 8C7, 3C12 or 6E1 lost binding to mutant 3 of CD73, but not to any other mutant. […] Antibody 7G2 lost binding to mutants 5, 6 and 7 (but not mutants 2 or 3).

B1: antibody 11E1 (antibody, human IgG1, V domains shown)
VH: EIQLQQSGPELVKPGASVKVSCKASGYAFTSYNMYWVKQSHGKSLEWIGYIDPYNGGTSYNQKFKGKATLTVDKSSSTAYMHLNSLTSEDSAVYYCARGYGNYKAWFAYWGQGTLVTVSA
VL: DAVMTQTPKFLLVSAGDRVTITCKASQSVTNDVAWYQQKPGQSPKLLIYYASNRYTGVPDRFTGSGYGTDFTFTISTVQAEDLAVYFCQQDYSSLTFGAGTKLELK
notes: also called 1E11
Broadly, the EC50 (read off the curve) is the midpoint of the concentration-response curve. Take B1: in test [1], the “EC50 for neutralization of enzymatic activity of cellular CD73 (MDA-MB-231, free phosphate from AMP)” value (from here on “EC50 … (MDA-MB-231, free phosphate from AMP)”) was found to be 0.195 µg/mL. Further, the “EC50 (read off the curve)” value in test [2] was roughly 0.5 µg/mL. In test [3], the “EC50 for neutralization of cellular CD73 enzymatic activity (mean over MDA-MB-231, H292, A375)” value (“EC50 … (mean over MDA-MB-231, H292, A375)” below) stood at 0.1 µg/mL; the “EC70 for neutralization of cellular CD73 enzymatic activity (mean over MDA-MB-231, H292, A375)” value (“EC70 … (mean over MDA-MB-231, H292, A375)” for short) came to 0.15 µg/mL; the “EC100 for neutralization of cellular CD73 enzymatic activity (mean over MDA-MB-231, H292, A375)” value (from here on “EC100 … (mean over MDA-MB-231, H292, A375)”) is 0.52 µg/mL. For the same molecule, in test [4], the “EC50 for CD73 blockade (enzymatic activity of soluble recombinant CD73-his, Cell Titer Glo)” value (shortened to “EC50 for CD73 blockade”) is 0.41 µg/mL. In addition, the “EC50 (read off the curve)” value in test [5] was roughly 0.5 µg/mL.

B2: antibody 8C7 (antibody, human IgG1, V domains shown)
VH: B1 VH with I2V, T30A, Y35N, E46D, T58S, Q62L, K63T, S77T
VL: SIVMTPTPKFLLVSAGDRVTITCKASQSVSNDVAWYQQKPGQSPKLLIYYASTRYTGVPDRFTGSGYGTDFTFTISTVQAEDLAVYFCQQDYSSLTFGAGTKLELKR
On to B2, for which, in test [1], the “EC50 … (MDA-MB-231, free phosphate from AMP)” value is 0.319 µg/mL. Also, in the test with human CD73 mutant 3, the binding result is “no binding (tested: 1-0.1-0.01-0.001 µg/ml)”. In test [3], the “EC50 … (mean over MDA-MB-231, H292, A375)” value came to 0.21 µg/mL; the “EC70 … (mean over MDA-MB-231, H292, A375)” value amounted to 0.46 µg/mL; the “EC100 … (mean over MDA-MB-231, H292, A375)” value was 0.72 µg/mL. Also, in test [4], the “EC50 for CD73 blockade” value was found to be 1.29 µg/mL.

B3: antibody 6E1 (antibody, human IgG1, V domains shown)
VH: B1 VH with I2F, S44R, T58S, S85N, G101N
VL: B1 VL with D1S, A2I, V78M
Turning to B3, the “EC50 … (MDA-MB-231, free phosphate from AMP)” value in test [1] was found to be 0.209 µg/mL. For the same molecule, the half-maximal effective concentration (EC50 (read off the curve)) in test [2] is roughly 0.5 µg/mL. Further, in test [3], the “EC50 … (mean over MDA-MB-231, H292, A375)” value worked out at 0.13 µg/mL; the “EC70 … (mean over MDA-MB-231, H292, A375)” value was found to be 0.19 µg/mL; the “EC100 … (mean over MDA-MB-231, H292, A375)” value is 0.68 µg/mL. Besides, the “EC50 for CD73 blockade” value in test [4] was determined as 0.33 µg/mL.

B4: antibody 3C12 (antibody, human IgG1, V domains shown)
VH: B1 VH with E1Q, T30A, Y35N, E46D, T58S, Q62L, K63T, S77T
VL: B2 VL with S1D, I2V, P6Q
Consider B4, for which the “EC50 … (MDA-MB-231, free phosphate from AMP)” value in test [1] was 0.21 µg/mL. Also, in test [3], the “EC50 … (mean over MDA-MB-231, H292, A375)” value worked out at 0.14 µg/mL; the “EC70 … (mean over MDA-MB-231, H292, A375)” value was 0.18 µg/mL; the “EC100 … (mean over MDA-MB-231, H292, A375)” value is 0.3 µg/mL. The “EC50 for CD73 blockade” value in test [4] is 0.41 µg/mL.
